Measurements taken from the supplement of paper PMC5998384.

How the values were obtained:
HeLa Kyoto [1] = experiment: melting temperature (median over replicates), in situ; higher = more thermally stable
HeLa Kyoto [2] = experiment: solubility in G1/S (NP-40 vs SDS abundance) (log2 ratio); higher = more soluble; conditions: cell cycle stage: G1/S
HeLa Kyoto [3] = experiment: thermal stability score vs G1/S (z-score of summed log2 fold changes over temperatures); higher = more thermally stable than in G1/S
HeLa Kyoto [4] = experiment: solubility change mitosis vs G1/S (difference of NP-40 vs SDS log2 ratios) (log2 ratio difference); higher = more soluble in mitosis
[5] = cell cycle stage: early G1 (4.5 h after nocodazole release)
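Wherever melting temperature (median over replicates), in situ is given: HeLa Kyoto cells synchronized by double thymidine or nocodazole block, proteins quantified by TMT10plex mass spectrometry, three independent biological replicates.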
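Wherever solubility change mitosis vs G1/S (difference of NP-40 vs SDS log2 ratios) is given: synchronized HeLa Kyoto cells (double thymidine block for G1/S, nocodazole release for mitosis), protein amounts in NP-40 versus SDS lysates quantified by mass spectrometry, three biological replicates.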
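Wherever solubility in G1/S (NP-40 vs SDS abundance) is given: HeLa Kyoto cells arrested at G1/S by double thymidine block, proteins quantified by TMT10plex mass spectrometry in mild NP-40 versus SDS extracts, three biological replicates.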
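Wherever thermal stability score vs G1/S (z-score of summed log2 fold changes over temperatures) is given: synchronized HeLa Kyoto cells, proteins quantified by TMT10plex mass spectrometry, three biological replicates, mitosis taken 0.5 h after nocodazole release, G1/S directly after double thymidine block.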

Row | Sequence | melting temperature (HeLa Kyoto [1]; cell cycle stage: G1/S) [°C] | melting temperature (HeLa Kyoto [1]; cell cycle stage: mitosis) [°C] | solubility in G1/S (log2) (HeLa Kyoto [2]) | thermal stability score (HeLa Kyoto [3]; [5]) | thermal stability score (HeLa Kyoto [3]; cell cycle stage: mitosis) | solubility change mitosis (log2) (HeLa Kyoto [4])
1 | MFSQQQQQQLQQQQQQLQQLQQQQLQQQQLQQQQLLQLQQLLQQSPPQAPLPMAVSRGLPPQQPQQPLLNLQGTNSASLLNGSMLQRALLLQQLQGLDQFAMPPATYDTAGLTMPTATLGNLRGYGMASPGLAAPSLTPPQLATPNLQQFFPQATRQSLLGPPPVGVPMNPSQFNLSGRNPQKQARTSSSTTPNRKDSSSQTMPVEDKSDPPEGSEEAAEPRMDTPEDQDLPPCPEDIAKEKRTPAPEPEPCEASELPAKRLRSSEEPTEKEPPGQLQVKAQPQARMTVPKQTQTPDLLPEALEAQVLPRFQPRVLQVQAQVQSQTQPRIPSTDTQVQPKLQKQAQTQTSPEHLVLQQKQVQPQLQQEAEPQKQVQPQVQPQAHSQGPRQVQLQQEAEPLKQVQPQVQPQAHSQPPRQVQLQLQKQVQTQTYPQVHTQAQPSVQPQEHPPAQVSVQPPEQTHEQPHTQPQVSLLAPEQTPVVVHVCGLEMPPDAVEAGGGMEKTLPEPVGTQVSMEEIQNESACGLDVGECENRAREMPGVWGAGGSLKVTILQSSDSRAFSTVPLTPVPRPSDSVSSTPAATSTPSKQALQFFCYICKASCSSQQEFQDHMSEPQHQQRLGEIQHMSQACLLSLLPVPRDVLETEDEEPPPRRWCNTCQLYYMGDLIQHRRTQDHKIAKQSLRPFCTVCNRYFKTPRKFVEHVKSQGHKDKAKELKSLEKEIAGQDEDHFITVDAVGCFEGDEEEEEDDEDEEEIEVEEELCKQVRSRDISREEWKGSETYSPNTAYGVDFLVPVMGYICRICHKFYHSNSGAQLSHCKSLGHFENLQKYKAAKNPSPTTRPVSRRCAINARNALTALFTSSGRPPSQPNTQDKTPSKVTARPSQPPLPRRSTRLKT [CIZ1] | 51.5 | 53.7 | -0.24 | 0.59 | 2.85 | 0.168
2 | MFSSVAHLARANPFNTPHLQLVHDGLGDLRSSSPGPTGQPRRPRNLAAAAVEEQYSCDYGSGRFFILCGLGGIISCGTTHTALVPLDLVKCRMQVDPQKYKGIFNGFSVTLKEDGVRGLAKGWAPTFLGYSMQGLCKFGFYEVFKVLYSNMLGEENTYLWRTSLYLAASASAEFFADIALAPMEAAKVRIQTQPGYANTLRDAAPKMYKEEGLKAFYKGVAPLWMRQIPYTMMKFACFERTVEALYKFVVPKPRSECSKPEQLVVTFVAGYIAGVFCAIVSHPADSVVSVLNKEKGSSASLVLKRLGFKGVWKGLFARIIMIGTLTALQWFIYDSVKVYFRLPRPPPPEMPESLKKKLGLTQ [SLC25A3] | 56.3 | 56 | -0.0671 | -1.42 | -3.39 | -0.0903
3 | MFSVESLERAELCESLLTWIQTFNVDAPCQTVEDLTNGVVMAQVLQKIDPAYFDENWLNRIKTEVGDNWRLKISNLKKILKGILDYNHEILGQQINDFTLPDVNLIGEHSDAAELGRMLQLILGCAVNCEQKQEYIQAIMMMEESVQHVVMTAIQELMSKESPVSAGNDAYVDLDRQLKKTTEELNEALSAKEEIAQRCHELDMQVAALQEEKSSLLAENQVLMERLNQSDSIEDPNSPAGRRHLQLQTQLEQLQEETFRLEAAKDDYRIRCEELEKEISELRQQNDELTTLADEAQSLKDEIDVLRHSSDKVSKLEGQVESYKKKLEDLGDLRRQVKLLEEKNTMYMQNTVSLEEELRKANAARSQLETYKRQVVELQNRLSEESKKADKLDFEYKRLKEKVDSLQKEKDRLRTERDSLKETIEELRCVQAQEGQLTTQGLMPLGSQESSDSLAAEIVTPEIREKLIRLQHENKMLKLNQEGSDNEKIALLQSLLDDANLRKNELETENRLVNQRLLEVQSQVEELQKSLQDQGSKAEDSVLLKKKLEEHLEKLHEANNELQKKRAIIEDLEPRFNNSSLKIEELQEALRKKEEEMKQMEERYKKYLEKAKSVIRTLDPKQNQGAAPEIQALKNQLQERDRLFHSLEKEYEKTKSQREMEEKYIVSAWYNMGMTLHKKAAEDRLASTGSGQSFLARQRQATSSRRSYPGHVQPATAR [HOOK3] | 50.4 | 51 | 0.753 | 0.316 | 0.85 | -0.00542
4 | MFTLAEVASLNDIQPTYRILKPWWDVFMDYLAVVMLMVAIFAGTMQLTKDQVVCLPVLPSPVNSKAHTPPGNAEVTTNIPKMEAATNQDQDGRTTNDISFGTSAVTPDIPLRATYPRTDFALPNQEAKKEKKDPTGRKTNLDFQQYVFINQMCYHLALPWYSKYFPYLALIHTIILMVSSNFWFKYPKTCSKVEHFVSILGKCFESPWTTKALSETACEDSEENKQRITGAQTLPKHVSTSSDEGSPSASTPMINKTGFKFSAEKPVIEVPSMTILDKKDGEQAKALFEKVRKFRAHVEDSDLIYKLYVVQTVIKTAKFIFILCYTANFVNAISFEHVCKPKVEHLIGYEVFECTHNMAYMLKKLLISYISIICVYGFICLYTLFWLFRIPLKEYSFEKVREESSFSDIPDVKNDFAFLLHMVDQYDQLYSKRFGVFLSEVSENKLREISLNHEWTFEKLRQHISRNAQDKQELHLFMLSGVPDAVFDLTDLDVLKLELIPEAKIPAKISQMTNLQELHLCHCPAKVEQTAFSFLRDHLRCLHVKFTDVAEIPAWVYLLKNLRELYLIGNLNSENNKMIGLESLRELRHLKILHVKSNLTKVPSNITDVAPHLTKLVIHNDGTKLLVLNSLKKMMNVAELELQNCELERIPHAIFSLSNLQELDLKSNNIRTIEEIISFQHLKRLTCLKLWHNKIVTIPPSITHVKNLESLYFSNNKLESLPVAVFSLQKLRCLDVSYNNISMIPIEIGLLQNLQHLHITGNKVDILPKQLFKCIKLRTLNLGQNCITSLPEKVGQLSQLTQLELKGNCLDRLPAQLGQCRMLKKSGLVVEDHLFDTLPLEVKEALNQDINIPFANGI [LRRC8D] | 53.7 | 53 | 0.141 | 0.491 | 0.22 | -0.126
5 | MFTSTGSSGLYKAPLSKSLLLVPSALSLLLALLLPHCQKLFVYDLHAVKNDFQIWRLICGRIICLDLKDTFCSSLLIYNFRIFERRYGSRKFASFLLGSWVLSALFDFLLIEAMQYFFGITAASNLPSGFLAPVFALFVPFYCSIPRVQVAQILGPLSITNKTLIYILGLQLFTSGSYIWIVAISGLMSGLCYDSKMFQVHQVLCIPSWMAKFFSWTLEPIFSSSEPTSEARIGMGATLDIQRQQRMELLDRQLMFSQFAQGRRQRQQQGGMINWNRLFPPLRQRQNVNYQGGRQSEPAAPPLEVSEEQVARLMEMGFSRGDALEALRASNNDLNVATNFLLQH [UBAC2] | 50.4 | 51.2 | -0.173 | 0.579 | 1.39 | -0.209
6 | MFWKFDLHTSSHLDTLLEREDLSLPELLDEEDVLQECKVVNRKLLDFLLQPPHLQAMVAWVTQEPPDSGEERLRYKYPSVACEILTSDVPQINDALGADESLLNRLYGFLQSTGSLNPLLASFFSKVMGILINRKTDQLVSFLRKKDDFVDLLLQHIGTSAIMDLLLRLLTCVERPQLRQDVVNWLNEEKIVQRLIEQIHPSKDENQHSNASQSLCDIIRLSREQMIQVQDSPEPDQLLATLEKQETIEQLLSNMFEGEQSQSVIVSGIQVLLTLLEPRRPRSESVTVNSFFSSVDGQLELLAQGALESTVSSVGALHALRPRLSCFHQLLLEPPKLEPLQMTWGMLAPPLGNTRLHVVKLLASALSANDAALTHELLALDVPNTMLDLFFHYVFNNFLHAQVEGCVSTMLSLGPPPDSSPETPIQNPVVKHLLQQCRLVERILTSWEENDRVQCAGGPRKGYMGHLTRVAGALVQNTEKGPNAEQLRQLLKELPSEQQEQWEAFVSGPLAETNKKNMVDLVNTHHLHSSSDDEDDRLKEFNFPEEAVLQQAFMDFQMQRMTSAFIDHFGFNDEEFGEQEESVNAPFDKTANITFSLNADDENPNANLLEICYKDRIQQFDDDEEEEDEEEAQGSGESDGEDGAWQGSQLARGARLGQPPGVRSGGSTDSEDEEEEDEEEEEDEEGIGCAARGGATPLSYPSPGPQPPGPSWTATFDPVPTDAPTSPRVSGEEELHTGPPAPQGPLSVPQGLPTQSLASPPARDALQLRSQDPTPPSAPQEATEGSKVTEPSAPCQALVSIGDLQATFHGIRSAPSSSDSATRDPSTSVPASGAHQPPQTTEGEKSPEPLGLPQSQSAQALTPPPIPNGSAPEGPASPGSQ [PPP6R1] | 53.1 | 50.6 | 0.169 | -1.2 | -0.743 | -0.0433
7 | MGAPLLSPGWGAGAAGRRWWMLLAPLLPALLLVRPAGALVEGLYCGTRDCYEVLGVSRSAGKAEIARAYRQLARRYHPDRYRPQPGDEGPGRTPQSAEEAFLLVATAYETLKDEETRKDYDYMLDHPEEYYSHYYHYYSRRLAPKVDVRVVILVSVCAISVFQFFSWWNSYNKAISYLATVPKYRIQATEIAKQQGLLKKAKEKGKNKKSKEEIRDEEENIIKNIIKSKIDIKGGYQKPQICDLLLFQIILAPFHLCSYIVWYCRWIYNFNIKGKEYGEEERLYIIRKSMKMSKSQFDSLEDHQKETFLKRELWIKENYEVYKQEQEEELKKKLANDPRWKRYRRWMKNEGPGRLTFVDD [DNAJC25] | 50.5 | 50.2 | -0.101 | 0.0789 | -0.224 | 0.00727
8 | MGARASGGPLARAGLLLLLLLLLLLGLLAPGAQGARGRGGAEKNSYRRTVNTFSQSVSSLFGEDNVRAAQKFLARLTERFVLGVDMFVETLWKVWTELLDVLGLDVSNLSQYFSPASVSSSPARALLLVGVVLLAYWFLSLTLGFTFSVLHVVFGRFFWIVRVVLFSMSCVYILHKYEGEPENAVLPLCFVVAVYFMTGPMGFYWRSSPSGPSNPSNPSVEEKLEHLEKQVRLLNIRLNRVLESLDRSKDK [BRI3BP] | 55.1 | 53.1 | -0.138 | -0.814 | -3.07 | 0.0237
9 | MGAYARASGVCARGCLDSAGPWTMSRALRPPLPPLCFFLLLLAAAGARAGGYETCPTVQPNMLNVHLLPHTHDDVGWLKTVDQYFYGIKNDIQHAGVQYILDSVISALLADPTRRFIYVEIAFFSRWWHQQTNATQEVVRDLVRQGRLEFANGGWVMNDEAATHYGAIVDQMTLGLRFLEDTFGNDGRPRVAWHIDPFGHSREQASLFAQMGFDGFFFGRLDYQDKWVRMQKLEMEQVWRASTSLKPPTADLFTGVLPNGYNPPRNLCWDVLCVDQPLVEDPRSPEYNAKELVDYFLNVATAQGRYYRTNHTVMTMGSDFQYENANMWFKNLDKLIRLVNAQQAKGSSVHVLYSTPACYLWELNKANLTWSVKHDDFFPYADGPHQFWTGYFSSRPALKRYERLSYNFLQVCNQLEALVGLAANVGPYGSGDSAPLNEAMAVLQHHDAVSGTSRQHVANDYARQLAAGWGPCEVLLSNALARLRGFKDHFTFCQQLNISICPLSQTAARFQVIVYNPLGRKVNWMVRLPVSEGVFVVKDPNGRTVPSDVVIFPSSDSQAHPPELLFSASLPALGFSTYSVAQVPRWKPQARAPQPIPRRSWSPALTIENEHIRATFDPDTGLLMEIMNMNQQLLLPVRQTFFWYNASIGDNESDQASGAYIFRPNQQKPLPVSRWAQIHLVKTPLVQEVHQNFSAWCSQVVRLYPGQRHLELEWSVGPIPVGDTWGKEVISRFDTPLETKGRFYTDSNGREILERRRDYRPTWKLNQTEPVAGNYYPVNTRIYITDGNMQLTVLTDRSQGGSSLRDGSLELMVHRRLLKDDGRGVSEPLMENGSGAWVRGRHLVLLDTAQAAAAGHRLLAEQEVLAPQVVLAPGGGAAYNLGAPPRTQFSGLRRDLPPSVHLLTLASWGPEMVLLRLEHQFAVGEDSGRNLSAPVTLNLRDLFSTFTITRLQETTLVANQLREAASRLKWTTNTGPTPHQTPYQLDPANITLEPMEIRTFLASVQWKEVDG [MAN2B1] | 57.1 | 56.6 | 0.313 | -0.143 | -1.1 | -0.109
